Measurements as given in a protein production outcome set (Wang et al. 2014).

assay: label from the status in PepcDB records

| Sequence | protein production |
| --- | --- |
| MRITHLGHSCILVEAAGQRILVDPGNLSRSWRGLTDLDAILVTHRHPDHVDPEHIGALVDANSGAVVRAEEGACHEIPALDADPVAPGDVLQIGEVRIEAVGGRHAVIHRDLEPIGNVGYLIGEGLGTILYHPGDELDETPRGVDVLACPAHAPWAAMKETVDFARSVGARHGFLIHEGLLNGRGWQLSFDRHQEMVP | failed |
| MRITHLGHSCILVEAAGQRILVDPGNLSRSWRGLTDLDAILVTHRHPDHVDPEHIGALVDANSGAVVRAEEGACHEIPALDADPVAPGDVLQIGEVRIEAVGGRHAVIHRDLEPIGNVGYLIGEGLGTILYHPGDELDETPRGVDVLACPAHAPWAAMKETVDFARSVGARHGFLIHEGLLNGRGWQLSFDRHQEMVPTTFHDLRNGQPWEVPQDLEHHHHHH | failed |
| MRKAYLMESIQPWIEKFIKQAQQQRSQSTKDYPTSYRNLRVKLSFGYGNFTSIPWFAFLGEGQEASNGIYPVILYYKDFDELVLAYGISDTNEPHAQWQFSSDIPKTIAEYFQATSGVYPKKYGQSYYACSQKVSQGIDYTRFASMLDNIINDYKLIFNSGKSVIPPMSKTESYCLEDALNDLFIPETTIETILKRLTIKKNIILQGPPGVGKTFVARRLAYLLTGEKAPQRVNMVQFHQSYSYEDFIQGYRPNGVGFRRKDGIFYNFCQQAKEQPEKKYIFIIDEINRANLSKVFGEVMMLMEHDKRGENWSVPLTYSENDEERFYVPENVYIIGLMNTADRSLAVVDYALRRRFSFIDIEPGFDTPQFRNFLLNKKAEPSFVESLCQKMNELNQEISKEATILGKGFRIGHSYFCCGLEDGTSPDTQWLNEIVMTDIAPLLEEYFFDDPYKQQKWTNKLLGDS | failed |
| MRKIMREIAVYGKGGIGKSTLSANLSAALALAGRKVLQIGCDPKHDSTRLLTHGREMPTVLDYMRVTNPLDYRLEEVLAHGFSGVGCVEAGGPNPGVGCAGRGIISTFEFLDRFRLKERYDTVVYDVLGDVVCGGFAVPIRKEYADTIFIVTSGEFMALYAANNILRGVRNYDNEEKRIAGILYNRRNIEGEDDRVARFAGAVGLSVCAVIPRSDSFTRAERGKMTVMEQGSDKAIMSIFSGLAQALISGCALHEAKPLTDNELEAIVLGSISSTGGPLSGPDSLPASVTEEPSAAGPPPEIGLTDPNRYLSKNILRSEPLHGCAFNGAMSVGAQISDAVILAHSPKSCTHIMYQTISSAGRRTLFERGALLPVSLAPNLESTDMGEAEMIFGGMEKLEEKILELKARQPRAIVVVSACPAGIIGDDIGRTRRFSEPGLPVVTLKTDGNLAGDYLQGMLMAYTSLARQVIRKDVPTLPDTVNIVFEKFIVTNTNDNFQTIGSLLSRLGVRVNCRFLCETTFDSLETFCTAQLNLLAYKDYTGKLLEDFFTREYGSVFLDRAFPVGFAETEDWLRDVAAFFGRPAAAEGIIEEHKELYAREVEALKADLAGKRLMIITYNHELDWILKTALDVGIDIVKIGVFNFSQDEGFRTRLDAAFNVVENYDRGERDQDIAAYKPDILLTNYASSLADEPFVADTIPMCPDVGFHSGLVLARRWARLLKLNLKGEWRQDELLFRQYYAG | failed |
| MRKINIFKGKHNPQRTAIDFFKYVGPGLLVTVGFIDPGNWASNVSAGSDYGYSLLWIVTLSTIMLIILQHNAAHLGIVTGDCLSEAVSKKFKPWLTNIILYSAIGAAISTAMAELLGGAIALNMLFRLPIKIGTLIMLSLVIWMLFSSSYKKLERWIIGFVSIIGLSFIFELLLVKVNWQVAAVSFVSPSFPKNSMPIIMSVLGAVVMPHNLFLHSEIIQSRQWNVEKEDVIKRQLRYEFLDTIISMIVGFAINSAMVLLAASTFFKMHVSVSELSQAQALLKPLLGGSASVVFALALLFSGIASTVTAGMAGGSIFAGIYKEPYDIEDSHTQIGVIITMVLAAVIIFFIKDPFKGLIYSQMILSIQLPITIFTQIYLTSSKKVMGKFSNSLLDRVLLGIIAVIVTALNIALLVSYF | failed |
| MRKKLNNEYRSAKKIRYMPGLDGLRAIAVIGIIIYHLNKQWLTGGFLGVDTFFVISGYLITSLLLKEYEDTGTINLKNFWIRRIKRLLPAVFALIVVVGIATLLLHPEHIVRVKHDMIAAIFYVSNWWYIAKDVNYFEQFSFMPLKHLWSLAIEEQFYLFFPAVLLLFMAIVKKKKNVILMFWIISLVSLLMMVVISQPHLNHSRVYFGTDTRLQTLLLGVLLAFIWPPFKLNPNPPKGLKTVINSAGIIGLTFLILLFFTVSDESDWIYNGGFYLISTMTLLIIASVVHPTTILAKLLGNPLFVYIGKRSYSLYLWHFPVISFIHSYFIDGQLPTYVYIMDIVITVLLAELSFRYVETPLRKEGLKAFTFKKTYKPQFIRTIVTLIMLLPFIFILVGAFDKFGKDTISNKAQTFNTNEADQYLIHMIPIDNISLTSDGKTKENKKDNDVYTQIKPLLIGDSVMVDIGEQFKTKVPKAKIDGKVGRQLYQAESLVKNQYRHYNKPSDQIILELGTNGDFTKEQLDNLIDKFGKAQVYLVNTRVPRSYESHVNELMAKAAKNKKNVTLIDWYSRSKGHTEYFAPDGIHLENDGVEALTDEILKNIKKK | failed |
| MRKLTFLLTFFMLLGSVQLQAKEYAIKDIPMVHLQNRTRYVSNPDGILSSTAVTTMDSILYALEQKTGIQTLVVAVTGIEGGDCFDFAHRLGQETGVGQKERDNGLVILLSTDERCVQFATGYGLEGILPDAICKRIQNRYMLPYFKDNNWNAGMVAGIRAVNGYLDGSMENIGNDESEDDPLEFIIIFFVIFGGFIGIGLYANWRKTRCPHCKKHKLQRLSSKVIDRSNGTKTEEVVYKCRNCGHILRRKERSRDENYKGPRGGGPFIGGMGGGFFGGHGGSGGGFSGGSFGGGSFGGGGAGSRF | failed |
| MRKNILITGVHGYIGNALKDKLIEQGHQVDQINVRNQLWKSTSFKDYDVLIHTAALVHNNSPQARLSDYMQVNMLLTKQLAQKAKAEDVKQFIFMSTMAVYGKEGHVGKSDQVDTQTPMNPTTNYGISKKFAEQALQELISDSFKVAIVRPPMIYGAHCPGNFQRLMQLSKRLPIIPNINNQRSALYIKHLTAFIDQLISLEVTGVYHPQDSFYFDTSSVMYEIRRQSHRKTVLINMPSMLNKYFNKLSVFRKLFGNLIYSNTLYENNNALEIIPGKMSLVIADIMDETTTKDKA | failed |
| MRKVLFTVALLLTACFVSAQVSVVKEAKSLKSKPEEAAKAIEPALTNPETANDPETWKLAGDFQKAIYDEENMKLYLPGGQADTTKLYNSLAKMYDFYLKCDEIEQAKVQSGELKKPKFRKKNADALKTLRLNLVNGGGDAYNKGDYADALKYFGLFVDVVNEPMFADDDELKADTLNALYACYATLAANMLKDNQAVIKYGNIGKNHKEEGYRALMCLAETYGQKEGGDSAKWLEVIKEGTESFPKQEYFVGNIMDYYIQKGMVDEGLAQINKLLATSETPYYLYVKGILLYEKKQYDDAVAIFNKIISNNGDLVAEAYSKIGDCYFFPAQIIVEENAKLAIDDPKYNENENKIKELYEKAKPYYEKAKELKPDNKALWGNYLLNIYWKLNRAEYDSLEKELGY | failed |
| MRLAEGIVIEKEKTFGTLKFSALRREVKIVDDEGNVTEQVKERTFDLKKEQGRMIQVSIPASAGVKNFDYNAEVEIINPIADTVATATFQGADVDWYIKAEDIVLKRPAQNQQADQKQNHDKKLEHHHHHH | failed |
| MRLERTFDPNDLSTQNMESPICLPIGFVHFLAQSQTLQQVLDTVAEWINRIFESDRTSITLYENSDYLKVYSFSGNKAIPADFLVPIDQAFVGRVFKNQQLIICDDVSQSDELDCVMLTSSGMGTCMDAPLMHGQMCLGTLNVAHHQTHFYTKEQAAQLQCIANWIALNIALHIQIMKMEHLATTDDLTGIPNRREFMRQIEHRLSEFRTQGIKFHVAILDLDNFKKLNDKFGHDAGDKSLIHAANTIKGHLRECDLLARVGGEEFAIVLRSRSSQEAMDTLETIRNALETTTIRYSGRDMTFTASIGVTQVCGLDDSFEPLVKRADLALYKAKETGRNRVEINHSEHQGVSNEQ | failed |
| MRLFAINAGNFKLDGGAMFGVVPKSIWNKLNPADSNNLCTWATRCLLIENGKQLVLIDTGLGDKQDESFFRHYYRDTPQTWDTLLKPYGFHSSDITDVVLTHLHFDHVGGALEKKGDKIVPTFSNARYWSNTRHWDWAVEPNPREKASFLKDNLFPLQESGQLYFVDTQNLPFEWMDFIFVDGHTEQQMLPLITTPAEKKILYAADLLPSAGHIPMPYIMSYDVRPLVSMQEKERVFNQVLAEDWTVFLEHDLSNACISLQQTEKGIRLNNVFQISDFNLEHHHHHH | failed |
| MRLIEQAIEKIESGQVTEGLTALEEAAKTANHEMKYTVAETYYELGHLDKAQAIIDELLMLYPDEGGLYTFAAEILIDLNKEDEAIEMLNEIKEQDPAFLQAQLLLADLYQLQSLDEVAEQKLLKAYEVAPDEPIISFGLGEFYLERGDYIKSIPHLKRAKHGGLTNDQVNVSLKLAEAYSGSGQFEEALPHYDEGLKQKLDPHGLFGYGYTAYLLGDYVLAIEQFQALKALDPDFYDPIPVFGEGFRRGKSFRGSNGCFKRGDDRGLEHHHHHH | not failed |
| MRLKPLPSRPLLGGVLFFALVFAFAGINPWGGGHEGVWNAPREGGMALFALAALAGVLLERRGRGLSVGGGALLALLASAGFLLAGAASTLLSPQPIWSWTGYPSVGDGLRFWALGVAFAWAVFLALETRVLSPRGLFGALLLALGLHALAVFPQVVDWKLDYTQTQGQTYVRCFDRERTDCYENPNATASGIYRGQMPIGLTSHRGHAAGVLALLGLVAAGLYLRSPRPGLLLLFGLGALALWFTQTRGGWLALWGTLALLALGLTWKRPGRLRPALALFLVGALSYGLYLALGQMGVQEPRRFPELGASFAEANAYSSGRLELWRKALAALPLRPWLGWGFDGYARASPHAVDWNGEDRRFVPAALSLPVRLVQGEDRLFYLEDPTGLRLLAPAPYAKAHNLFLDLLLSVGVLGGAAYLLWLGAALRQASWAKLPFALAVAGYLLYGLTWYDSVHVTPLALLALGALVTREEVWRGA | failed |
| MRLLPRETGDGDRPRVARSARPRAGSAVEGALSAAQRPLRHGAYPRRATSPVARVRMVFLALVATLFALPALAEPKFPPLSGRVVDEAQVLSPDVERDLSDKLAALETRTGHQLVVATVSSLQGYPIEDYGYRLGRTWGIGDKDKDDGAILLVAPNDRQVRIEVGYGLEPVLTDALSSVIIQSAILPKFRDGDLSGGIVAGADAMIEQLGLPPEEAKARVADAARPERHEARGSPIVGFLILLFIIFVFSSLFRGRRGGLGSALPWIILSALNNSGRGGGGWGGGGGGGFSGGGGSFGGGGSSGRW | failed |
| MRLLYVIKKENPMDQMPNCPKCQSEYVYHDSINFVCPDCGNEWDNNEIQESDDDQLIVKDSNGNLLAEGDNVLLIKDLKLKGSSEVLKKGTKFKNIRLVNGDHNVDCGKIMLKSEFLKKA | failed |
| MRLLYVIKKENPMDQMPNCPKCQSEYVYHDSINFVCPDCGNEWDNNEIQESDDDQLIVKDSNGNLLAEGDNVLLIKDLKLKGSSEVLKKGTKFKNIRLVNGDHNVDCGKIMLKSEFLKKALEHHHHHH | not failed |
| MRLPRQIRLPHLRDIGALLTDSAREWSRHRASSKGAALSLYMVFSLAPMLILVIAVAGAFFGEEAVRSELFSQVRDLTGERGAEVIQTVLASAHESGSGWLAALLSICVLVFSATTAFAELKASLDELWDVKEDKSGLQGLVRSRMLSFGLVLVLALFLLLSLTLNAALGAAKGYYGDLWSTSAFAMAADWLSNLFSFAVVTALFAVVYKLLPSKRIPWLDVIPGAIVTAALFLAGKWGIGLYLERGTAVSAYGAAGSLIALLLWIYYSAQIFFFGAVFTRQFAERFGNLRRAAPA | not failed |
| MRLSAEQVVEVLRAAGESTRLRLLALLAAEELSVLELCRILDQSQPRVSRHLKLLAEAGLVERFPDGAWVFYRLAAKSPGRLLVEQALDLIDEGDETVQSDADKLAAVRAERSTDAQAYFARNAARWNEIRSLYVDEAEVEAAILRATGEGPFDEMVDLGAGAGRMLTLLGKRAANALGLDLSQQMLNIARDEVSKAGLTACELRHGDIFRTGLPGGCADLVTVHQVLHYLTDPATAVAEAARLVTPGGLLLIADFAPHGHEFLREVHQHRRLGFDDAEIVAWLQAAGLVLESNIALPPATAEGLTVKIWTARRPGKASLERSAA | failed |
